The source of these data is PMC13541614 (2026).

This experiment has as its target H5N1 influenza hemagglutinin (HA) of A/Vietnam/1203/2004, native (wild type) (Influenza A virus A/Vietnam/1203/2004 …, biotin on the AviTag (expressed in the presence of BirA)). Briefly: BLI. Background: BLI is a label-free optical method that tracks binding on a fibre tip over time.

B1: CR6261 (broadly neutralizing antibody targeting the stem region of HA), IgG (antibody, V domains shown)
VH: EVQLVESGAEVKKPGSSVKVSCKASGGPFRSYAISWVRQAPGQGPEWMGGIIPIFGTTKYAPKFQGRVTITADDFAGTVYMELSSLRSEDTAMYYCAKHMGYQVRETMDVWGKGTTVTVSS
VL: QSVLTQPPSVSAAPGQKVTISCSGSSSNIGNDYVSWYQQLPGTAPKLLIYDNNKRPSGIPDRFSGSKSGTSATLGITGLQTGDEANYYCATWDRRPTAYVVFGGGTKLTVL
For orientation: Kd means the concentration at which binding is half-saturated. On to B1, for which the dissociation constant (Kd) was found to be 0.46 nM.

B2: 13D4 (broadly neutralizing antibody targeting the head region of HA), IgG (antibody, V domains shown)
VH: QVQLQQSGAELMKPGASVKISCKATGYTFSGHWIEWVKQRPGHGLEWIGEILPGSGNIHYNEKFKGKATFAADTSSNTAYMQLSSLTSEDSAVYYCARLGTTAVERDWYFDVWGAGTTVTVSL
VL: DIVMTQSQKFMSASVGDRVSVTCKASQNVGTHLAWYQQKPGQSPKALIYSASYRYSGVPDRFTGSGSGTDFTLTISNVQSGDLADYFCQQYNNFPLTFGAGTKLEIK
As to B2, the Kd came to 0.64 nM.
